{"source": "patent EP0956864A1", "about": "“TISSUE FIBROSIS INHIBITOR” (KYOWA HAKKO KOGYO CO., LTD., priority 1996, dated 1998)", "key": {"[1]": {"system": "Rat2 cells", "assay": "Cell growth inhibiting activity in rat fibroblast cell line Rat2 (MTT method)", "format": "cell-based", "conditions": "1.5 µg/ml; compared with LP6 to LP10", "experimental": "The assay of growth inhibiting activity using the rat fetal fibroblast as above mentioned has an insufficient sensitivity and needs complicated operations; therefore, a higher sensitive assay of the growth inhibiting activity using rat fibroblasts, Rat2 cells, was established. This assay will be described hereinbelow.\nRat fibroblast cell line Rat2 (ATCC CRL-1764) was cultured in Eagle MEM medium containing 10% bovine serum (Science, 130, 432 (1959)) in the presence of 5% carbon dioxide at 37°C.\nThe number of Rat2 cells can be measured by any method which can be used for quantitative determination of cell growth. […] Procedures for quantitatively determining the number of cells by the MTT method and assaying the cell growth inhibiting activity of a sample will be described herein. […]\nThereafter, PBS containing 1 to 10 mg/ml, preferably 5 mg/ml, of MTT reagent is added at 1 to 100 µl/well, preferably 10 µl/well, and further incubated for 1 to 8 hours, preferably 4 hours. […] The absorbance of the dissolved formazan dye at 540 nm is measured to thereby quantitatively determine the number of cells. […]\nThe number of Rat2 cells may be measured by any method which can be used to determine cell growth in a quantitative manner. The number of cells was quantitatively determined by the MTT method herein to measure the cell growth inhibiting activity in the liver perfusates LP6 to LP10. […]"}, "[2]": {"assay": "Arginase activity assay (Garganta and Bond)", "format": "biochemical", "conditions": "purified preparation", "experimental": "The elution of protein was monitored by measuring absorbance at 280 nm. Effluents were collected by a fraction collector and each fraction was estimated according to the method of measuring arginase activity as reported by Garganta and Bond: Analytical Biochemistry, 154, 388 (1986).\nThe SP-Sepharose human arginase fraction contained 1360 mg of proteins and the purity of human arginase was 90% or higher. […] The amount of proteins herein means the value calculated as bovine serum albumin using BIO-RAD protein assay kit."}, "[3]": {"assay": "Arginine concentration in blood (plasma) after administration to rats", "format": "in vivo, SD rats", "conditions": "0.5 ml of 200 µg/ml per rat into penis veniplex; 1, 3, 6, 24 hours and 1 to 14 days", "experimental": "2. Kinetics of PEG modified rat arginase in rat blood\nMale SD rats (body weight of 220 to 240 G) were purchased from Nippon SLC and tested after about 1 week breeding. […] After inhalation anesthesia with diethyl ether, each sample was administered to penis veniplex at a dose of 0.5 ml per rat by means of a disposable plastic syringe (Terumo).\nTo determine the change with the passage of time, the blood was taken from the same individual at 1, 3, 6 and 24 hours or 1, 3, 7, 10 and 14 days. The animals were bled from the tail veins at 0.3 ml per animal by a method that causes a minimum effect on the animals. Each rat was fixed in a retaining trap (Natsume Seisakusho) so that it could move only the tail freely, and a disposable injection needle (Terumo, 23x1\" ) was cut at the part connecting to the syringe and inserted into the tail vein. The vein blood dripped from the cut end was received in a sample tube (Eppendorph, volume of 1.5 ml) containing 10 µl of 5% EDTA.2K solution as an anticoagulant. After slightly shaking to confirm the absence of coagulation, the blood was centrifuged at 3,000 rpm for 10 minutes to yield plasma. The plasma sample was freezed and stored at -80°C until analysis. Prior to use, the sample was thawed and centrifuged at 3,000 rpm for 10 minutes to remove insoluble matters. […]"}}}
{"molecule": "PEG modified rat arginase: recombinant rat arginase modified with methoxy polyethylene glycol propionic acid N-hydroxysuccinimide ester, average molecular weight about 5,000 (conjugate, UniProt P07824 1-323, looked up, methoxy PEG 5000 conjugated) Arginase-1: MSSKPKPIEIIGAPFSKGQPRGGVEKGPAALRKAGLVEKLKETEYNVRDHGDLAFVDVPNDSPFQIVKNPRSVGKANEQLAAVVAETQKNGTISVVLGGDHSMAIGSISGHARVHPDLCVIWVDAHTDINTPLTTSSGNLHGQPVAFLLKELKGKFPDVPGFSWVTPCISAKDIVYIGLRDVDPGEHYIIKTLGIKYFSMTEVDKLGIGKVMEETFSYLLGRKKRPIHLSFDVDGLDPVFTPATGTPVVGGLSYREGLYITEEIYKTGLLSGLDIMEVNPTLGKTPEEVTRTVNTAVALTLSCFGTKREGNHKPETDYLKPPK", "values": [{"measurement": "rat fibroblast Rat-2 growth inhibiting activity", "setting": "[1]", "result": "identical with that obtained when 1.25% LP6 to LP10 were added"}, {"measurement": "arginase activity", "setting": "[2]", "result": 2358, "unit": "U/ml"}, {"measurement": "arginine concentration in blood", "setting": "[3]", "result": "Sustained inhibiting effects"}]}
